Laboratory results as given in article PMC10484678.

Molecular target: PCBP2 KH1/2 (human, UniProt Q15366 1-168)
Test: ITC

Chain of PCBP2 KH1/2 (Q15366 1-168): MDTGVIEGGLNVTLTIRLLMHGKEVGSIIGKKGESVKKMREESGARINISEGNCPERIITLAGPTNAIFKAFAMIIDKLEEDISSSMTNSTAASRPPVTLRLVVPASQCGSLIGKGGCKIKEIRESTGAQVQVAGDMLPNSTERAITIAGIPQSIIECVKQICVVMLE

B1: PV stem-loop B (structured_RNA)
RNA: GCUCUGGGGUUGUACCCACCCCAGAGC
- Kd: 22.9 ± 6.3 µM
